Results on one molecule are retold here after patent US20050100897A1, “NFAT transcription factors in tumor progression” (priority 2002, published 2005).

Common to all, as to type: cell-based, human
Experiment [1] concerns Clone A colon cancer cell line. The experiment is described as follows: Matrigel chemoinvasion assay, Clone A cells. As to conditions: transient transfection.
Procedure: (§1) Invasion assays were performed using standard methods (see Shaw et al., Cell 91:949-960, 1997) using Transwell chambers coated with Matrigel. Briefly, cells were co-transfected with the indicated NFAT constructs, 1 μg EGFP-N1 (Clontech) and 1 μg pCS2-(n)β-Gal, a •gal expression vector (Dave Turner, University of Michigan) using the Lipofectamine procedure (Life Technologies), and after twenty-four hours, the cells were resuspended in serum-free medium containing 0.1% bovine serum albumin (BSA) and added to each well. […] Cells that stained positive for β-galactosidase expression were counted, and the mean of triplicate assays for each experimental condition was used as % relative invasion.
Another experiment deals with MDA-MB-231 cells. As to the kind of experiment: Matrigel chemoinvasion assay, MDA-MB-231 cells. As to conditions: transient transfection. The text has this:
FIGS. 3A-3C show the role of NFAT-5 in mediating carcinoma invasion. FIG. 3A is a graph showing luciferase levels in MDA-MB-435 cells expressing vector alone, β4.ΔCYT (3C12), or wild-type β4^+ (3A7 clone) that were transiently transfected with an NFAT-5-luciferase reporter construct (NFAT-5-luc). Luciferase activity is shown as relative luciferase units. […] The lysates were resolved by SDS PAGE and immunoblotted with anti-NFAT-5 (α-NFAT-5, top panel) or anti-p85 (α-p85, bottom panel) The position of the 175 kDa and 90 kDa markers are indicated (left). […] The ability of the transfected cells to invade Matrigel was then assayed and the data are shown as the relative invasion of NFAT-5-transfected cells compared to vector alone-transfected cells (100%).
Invasion assays were performed using standard methods (see Shaw et al., Cell 91:949-960, 1997) using Transwell chambers coated with Matrigel. […] Cells that stained positive for β-galactosidase expression were counted, and the mean of triplicate assays for each experimental condition was used as % relative invasion. […]

Experiment [2] relates to NFAT-5 transcriptional activity. As to the kind of experiment: NFAT-5-luc luciferase reporter assay in MDA-MB-435 β4+ (3A7) cells. As to conditions: co-transfected with dominant negative NFAT-5 (GFP-ND5). On the procedure: FIGS. 4A-4D are graphs showing that NFAT-5 transcriptional activity is induced in an α6β4-dependent manner. FIG. 4A is a graph showing NFAT-5 transcriptional activity in control parental cells, β4 (3A7), and β4.ΔCYT (3C12) MDA-MB-435 transfectants that were transiently transfected with NFAT-5-luc. The cells were grown in complete media for twenty-four hours, trypsinized, incubated with anti-α6 (clone 135-13C) for 30 minutes, then plated onto secondary antibody-coated plates, either in the presence (+) or absence (−) of NIH 3T3 conditioned medium (CM), for twenty-four hours. As a positive control, cells were also stimulated with PMA (phorbol 12-myristate 13-acetate) and ionomycin (100 nM each) for twenty-four hours. Following stimulation, cells were lysed and NFAT-5 transcriptional activity was assayed. […] NFAT-5 transcriptional activity was measured as described above. […] NFAT-5 transcriptional activity was measured as described above. […]
Cells were transiently co-transfected with an NFAT luciferase reporter construct (NFAT-luc, 10 μg) and 1 μg pCS2-(n)β-gal using the Lipofectamine procedure (Life Technologies). Twenty-four hours after the transfection, luciferase and beta-galactosidase assays were performed using standard assays on total cell lysates and measured on a luminometer. […]
Background: Reporter assays use an easily measured gene product as a stand-in for the process of interest.

Experiment [3] has as its system MDA-MB-435 β4+-expressing cells (3A7). As to the kind of experiment: Matrigel chemoinvasion assay, MDA-MB-435 β4+ transfectants. As to conditions: transient transfection; NIH 3T3 conditioned media as chemoattractant.
Procedure: Following the transfection protocol, the ability of the transfected cells to invade Matrigel was assayed. The data are shown as the relative invasion of NFAT transfected cells compared to vector alone-transfected cells (100%). The data shown are mean values (±SEM) of 2 experiments performed in triplicate.
as §1

B1: ND5: dominant negative NFAT-5 mutant, amino acids 1-471 (SEQ ID NO:17) of NFAT5a; blocks dimerization of endogenous NFAT-5 (protein, listed as Homo sapiens)
chain: MGGACSSFTTSSSPTIYSTSVTDSKAMQVESCSSAVGVSNRGVSEKQLTSNTVQQHPSTPKRHTVLYISPPPEDLLDNSRMSCQDEGCGLESEQSCSMWMEDSPSNFSNMSTSSYNDNTEVPRKSRKRNPKQRPGVKRRDCEESNMDIFDADSAKAPHYVLSQLTTDNKGNSKAGNGTLENQKGTGVKKSPMLCGQYPVKSEGKELKIVVQPETQHRARYLTEGSRGSVKDRTQQGFPTVKLEGHNEPVVLQVFVGNDSGRVKPHGFYQACRVTGRNTTPCKEVDIEGTTVIEVGLDPSNNMTLAVDCVGILKLRNADVEARIGIAGSKKKSTRARLVFRVNIMRKDGSTLTLQTPSSPILCTQPAGVPEILKKSLHSCSVKGEEEVFLIGKNFLKGTKVIFQENVSDENSWKSEAEIDMELFHQNHLIVKVPPYHDQHITLPVSVGIYVVTNAGRSHDVQPFTYTPDPAA
Regarding B1, the “carcinoma invasion (relative invasion vs vector alone)” value (in experiment [1]; in the experiment on MDA-MB-231 cells; in experiment [3]) was “significantly inhibited invasion” each time. Besides, the “co-stimulated NFAT-5 transcriptional activity (α6β4 + conditioned media, or PMA/ionomycin)” value in experiment [2] is recorded as “inhibited”.
